Measured values published in publication PMC6297355, “Myopathy associated BAG3 mutations lead to protein aggregation by stalling Hsp70 networks” (Nature Communications, 2018).

B1: BAG3^P209L (recombinant) (natural protein)
chain: not shown
notes: BAG3, human, disease mutation P209L in the second IPV motif; Forms soluble higher order oligomers by SEC-MALS; source: E. coli BL21(DE3), purified (Ni-NTA, TEV cleavage, MonoQ)
B2: BAG3^P209W (recombinant) (natural protein)
chain: not shown
notes: BAG3, human, P209W; source: E. coli BL21(DE3), purified (Ni-NTA, TEV cleavage, MonoQ)
B3: BAG3^P209I (recombinant) (natural protein)
chain: not shown
notes: BAG3, human, P209I; source: E. coli BL21(DE3), purified (Ni-NTA, TEV cleavage, MonoQ)

Target: the molecule itself
Experiment: SEC-MALS; 30 µM BAG3 solutions separated on Shodex 804, in-line DAWN HELEOS and Optilab rEX detectors

Binding result, binds:
B1, B2, B3
